According to US20150344570A1 (published 2015):

T1: FcγRIIb extracellular domain with C-terminal His tag (human, UniProt P31994 43-217)
T1 construct: extracellular domain; soluble analyte in Biacore; also called FcgRIIb; not shown: His tag at the C terminus
T1 sequence (looked up): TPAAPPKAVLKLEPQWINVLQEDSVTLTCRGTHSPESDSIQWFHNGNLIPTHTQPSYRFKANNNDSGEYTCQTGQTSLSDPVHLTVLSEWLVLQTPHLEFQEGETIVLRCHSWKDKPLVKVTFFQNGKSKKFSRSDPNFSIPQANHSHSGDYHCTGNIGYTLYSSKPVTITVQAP

B1: GpH7-A5/GpH7-B3 variant A327_13S/GpL16-k0 (antibody, human IgG1, kappa)
heavy 1: not shown
heavy 2: not shown
light: DIVMTQSPLSLPVTPGEPASISCQASESLVHSNRNTYLHWYLQKPGQSPQLLIYKVSNRFSGVPDRFSGSGSGTDFTLKISRVEAEDVGVYYCSQNTHVPPTFGQGTKVEIERTVAAPSVFIFPPSDEQLKSGTASVVCLLNNFYPREAKVQWKVDNALQSGNSQESVTEQDSKDSTYSLSSTLTLSKADYEKHKVYACEVTHQGLSSPVTKSFNRGEC
notes: change in the GpH7-B3 H chain only; also called He Ab
B2: GpH7-A5/GpH7-B3 variant A330_03V/GpL16-k0 (antibody, human IgG1, kappa)
heavy 1: not shown
heavy 2: not shown
light: B1 light
notes: as for B1
B3: GpH7-A5/GpH7-B3 variant A330_04F/GpL16-k0 (antibody, human IgG1, kappa)
heavy 1: not shown
heavy 2: not shown
light: B1 light
notes: as for B1
B4: GpH7-A5/GpH7-B3 variant A330_06M/GpL16-k0 (antibody, human IgG1, kappa)
heavy 1: not shown
heavy 2: not shown
light: B1 light
notes: as for B1
B5: GpH7-A5/GpH7-B3 variant A330_07I/GpL16-k0 (antibody, human IgG1, kappa)
heavy 1: not shown
heavy 2: not shown
light: B1 light
notes: as for B1
B6: GpH7-A5/GpH7-B3 variant A330_08L/GpL16-k0 (antibody, human IgG1, kappa)
heavy 1: not shown
heavy 2: not shown
light: B1 light
notes: as for B1
B7: GpH7-A5/GpH7-B3 variant A330_09D/GpL16-k0 (antibody, human IgG1, kappa)
heavy 1: not shown
heavy 2: not shown
light: B1 light
notes: as for B1
B8: GpH7-A5/GpH7-B3 variant A330_10E/GpL16-k0 (antibody, human IgG1, kappa)
heavy 1: not shown
heavy 2: not shown
light: B1 light
notes: as for B1
B9: GpH7-A5/GpH7-B3 variant A330_11K/GpL16-k0 (antibody, human IgG1, kappa)
heavy 1: not shown
heavy 2: not shown
light: B1 light
notes: as for B1
B10: GpH7-A5/GpH7-B3 variant A330_14T/GpL16-k0 (antibody, human IgG1, kappa)
heavy 1: not shown
heavy 2: not shown
light: B1 light
notes: as for B1
B11: GpH7-A5/GpH7-B3 variant A330_15Y/GpL16-k0 (antibody, human IgG1, kappa)
heavy 1: not shown
heavy 2: not shown
light: B1 light
notes: as for B1
B12: GpH7-A5/GpH7-B3 variant A330_16H/GpL16-k0 (antibody, human IgG1, kappa)
heavy 1: not shown
heavy 2: not shown
light: B1 light
notes: as for B1
B13: GpH7-A5/GpH7-B3 variant A330_18N/GpL16-k0 (antibody, human IgG1, kappa)
heavy 1: not shown
heavy 2: not shown
light: B1 light
notes: as for B1
B14: GpH7-A5/GpH7-B3 variant A330_19Q/GpL16-k0 (antibody, human IgG1, kappa)
heavy 1: not shown
heavy 2: not shown
light: B1 light
notes: as for B1
B15: GpH7-A5/GpH7-B3 variant A330_20W/GpL16-k0 (antibody, human IgG1, kappa)
heavy 1: not shown
heavy 2: not shown
light: B1 light
notes: as for B1
B16: GpH7-A5/GpH7-B3 variant E333_01G/GpL16-k0 (antibody, human IgG1, kappa)
heavy 1: not shown
heavy 2: not shown
light: B1 light
notes: as for B1
B17: GpH7-A5/GpH7-B3 variant E333_02A/GpL16-k0 (antibody, human IgG1, kappa)
heavy 1: not shown
heavy 2: not shown
light: B1 light
notes: as for B1
B18: GpH7-A5/GpH7-B3 variant E333_03V/GpL16-k0 (antibody, human IgG1, kappa)
heavy 1: not shown
heavy 2: not shown
light: B1 light
notes: as for B1
B19: GpH7-A5/GpH7-B3 variant E333_04F/GpL16-k0 (antibody, human IgG1, kappa)
heavy 1: not shown
heavy 2: not shown
light: B1 light
notes: as for B1
B20: GpH7-A5/GpH7-B3 variant E333_05P/GpL16-k0 (antibody, human IgG1, kappa)
heavy 1: not shown
heavy 2: not shown
light: B1 light
notes: as for B1
B21: GpH7-A5/GpH7-B3 variant E333_06M/GpL16-k0 (antibody, human IgG1, kappa)
heavy 1: not shown
heavy 2: not shown
light: B1 light
notes: as for B1
B22: GpH7-A5/GpH7-B3 variant E333_07I/GpL16-k0 (antibody, human IgG1, kappa)
heavy 1: not shown
heavy 2: not shown
light: B1 light
notes: as for B1
B23: GpH7-A5/GpH7-B3 variant E333_08L/GpL16-k0 (antibody, human IgG1, kappa)
heavy 1: not shown
heavy 2: not shown
light: B1 light
notes: as for B1
B24: GpH7-A5/GpH7-B3 variant E333_09D/GpL16-k0 (antibody, human IgG1, kappa)
heavy 1: not shown
heavy 2: not shown
light: B1 light
notes: as for B1
B25: GpH7-A5/GpH7-B3 variant E333_11K/GpL16-k0 (antibody, human IgG1, kappa)
heavy 1: not shown
heavy 2: not shown
light: B1 light
notes: as for B1
B26: GpH7-A5/GpH7-B3 variant E333_12R/GpL16-k0 (antibody, human IgG1, kappa)
heavy 1: not shown
heavy 2: not shown
light: B1 light
notes: as for B1
B27: GpH7-A5/GpH7-B3 variant E333_13S/GpL16-k0 (antibody, human IgG1, kappa)
heavy 1: not shown
heavy 2: not shown
light: B1 light
notes: as for B1
B28: GpH7-A5/GpH7-B3 variant E333_14T/GpL16-k0 (antibody, human IgG1, kappa)
heavy 1: not shown
heavy 2: not shown
light: B1 light
notes: as for B1
B29: GpH7-A5/GpH7-B3 variant E333_15Y/GpL16-k0 (antibody, human IgG1, kappa)
heavy 1: not shown
heavy 2: not shown
light: B1 light
notes: as for B1
B30: GpH7-A5/GpH7-B3 variant E333_16H/GpL16-k0 (antibody, human IgG1, kappa)
heavy 1: not shown
heavy 2: not shown
light: B1 light
notes: as for B1
B31: GpH7-A5/GpH7-B3 variant I332_12R/GpL16-k0 (antibody, human IgG1, kappa)
heavy 1: not shown
heavy 2: not shown
light: B1 light
notes: as for B1
B32: GpH7-A5/GpH7-B3 variant I336_01G/GpL16-k0 (antibody, human IgG1, kappa)
heavy 1: not shown
heavy 2: not shown
light: B1 light
notes: as for B1
B33: GpH7-A5/GpH7-B3 variant I336_02A/GpL16-k0 (antibody, human IgG1, kappa)
heavy 1: not shown
heavy 2: not shown
light: B1 light
notes: as for B1
B34: GpH7-A5/GpH7-B3 variant I336_03V/GpL16-k0 (antibody, human IgG1, kappa)
heavy 1: not shown
heavy 2: not shown
light: B1 light
notes: as for B1
B35: GpH7-A5/GpH7-B3 variant K334_01G/GpL16-k0 (antibody, human IgG1, kappa)
heavy 1: not shown
heavy 2: not shown
light: B1 light
notes: as for B1
B36: GpH7-A5/GpH7-B3 variant K334_09D/GpL16-k0 (antibody, human IgG1, kappa)
heavy 1: not shown
heavy 2: not shown
light: B1 light
notes: as for B1
B37: GpH7-A5/GpH7-B3 variant P329_01G/GpL16-k0 (antibody, human IgG1, kappa)
heavy 1: not shown
heavy 2: not shown
light: B1 light
notes: as for B1

target: T1, FcγRIIb extracellular domain with …; test: SPR, binding relative to GpH7-A5/GpH7-B3/GpL16-k0 = 100

Row | He/Con_2b | Binder
1 | 79.5 % of control | B1
2 | 52.4 % of control | B2
3 | 92.8 % of control | B3
4 | 80.5 % of control | B4
5 | 67.1 % of control | B5
6 | 70.5 % of control | B6
7 | 55.6 % of control | B7
8 | 70.1 % of control | B8
9 | 95 % of control | B9
10 | 77.9 % of control | B10
11 | 95 % of control | B11
12 | 87.6 % of control | B12
13 | 63.7 % of control | B13
14 | 90.8 % of control | B14
15 | 76.1 % of control | B15
16 | 81.4 % of control | B16
17 | 83.8 % of control | B17
18 | 93.2 % of control | B18
19 | 94.6 % of control | B19

Row | He/Con_2b | Binder
20 | 97.7 % of control | B20
21 | 85.4 % of control | B21
22 | 96.2 % of control | B22
23 | 95 % of control | B23
24 | 94.3 % of control | B24
25 | 80.6 % of control | B25
26 | 80.4 % of control | B26
27 | 81.8 % of control | B27
28 | 86.1 % of control | B28
29 | 94.4 % of control | B29
30 | 83.3 % of control | B30
31 | 48.9 % of control | B31
32 | 90.1 % of control | B32
33 | 84.9 % of control | B33
34 | 90.3 % of control | B34
35 | 92.5 % of control | B35
36 | 94.8 % of control | B36
37 | 41.7 % of control | B37

target: T2, FcγRIa extracellular domain with C-terminal His tag (human, UniProt P12314 16-292); test: as above
T2 construct: extracellular domain; soluble analyte in Biacore; also called FcgRI; not shown: His tag at the C terminus
T2 sequence (P12314 16-292): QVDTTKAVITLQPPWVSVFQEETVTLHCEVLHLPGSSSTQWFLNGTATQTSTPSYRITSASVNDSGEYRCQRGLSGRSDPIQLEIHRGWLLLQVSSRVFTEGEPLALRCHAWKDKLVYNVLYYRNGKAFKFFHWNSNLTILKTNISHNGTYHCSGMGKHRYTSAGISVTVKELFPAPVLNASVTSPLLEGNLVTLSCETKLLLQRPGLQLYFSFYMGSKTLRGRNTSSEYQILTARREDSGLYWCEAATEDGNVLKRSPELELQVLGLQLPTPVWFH

Row | He/Con_1a | Binder
38 | 102 % of control | B1
39 | 106 % of control | B2
40 | 106 % of control | B3
41 | 105 % of control | B4
42 | 105 % of control | B5
43 | 107 % of control | B6
44 | 109 % of control | B7
45 | 107 % of control | B8
46 | 103 % of control | B9
47 | 105 % of control | B10
48 | 105 % of control | B11
49 | 106 % of control | B12
50 | 106 % of control | B13
51 | 105 % of control | B14
52 | 108 % of control | B15
53 | 103 % of control | B16
54 | 103 % of control | B17
55 | 105 % of control | B18
56 | 102 % of control | B19

Row | He/Con_1a | Binder
57 | 102 % of control | B20
58 | 102 % of control | B21
59 | 102 % of control | B22
60 | 102 % of control | B23
61 | 104 % of control | B24
62 | 102 % of control | B25
63 | 102 % of control | B26
64 | 103 % of control | B27
65 | 102 % of control | B28
66 | 101 % of control | B29
67 | 101 % of control | B30
68 | 100 % of control | B31
69 | 109 % of control | B32
70 | 106 % of control | B33
71 | 105 % of control | B34
72 | 104 % of control | B35
73 | 106 % of control | B36
74 | 101 % of control | B37
